Laboratory results taken from paper PMC4787811 (Nucleic Acids Research, 2015).

Legend:
[1] = target: T1, E1FL (full-length E1) (bovine papillomavirus (BPV-1), UniProt P03116 1-605); assay: hydroxyl radical footprinting; details: protein: recombinant; tags: GST fusion, tag cleaved with thrombin and removed; chain copies: 6; label: 5'-32P on top strand; fork: 30 bp duplex, 3' T20 and 5' C8 arms
[2] = target: T1, E1FL (full-length E1); assay: hydroxyl radical footprinting; 10-fold excess unlabelled T18 competitor; similar protection to top strand; details: protein: recombinant; tags: GST fusion, tag cleaved with thrombin and removed; chain copies: 6; label: 3'-32P on bottom strand; fork: 3' T20 and 5' C8 arms; 29 bp as printed before labelling
[3] = target: T1, E1FL (full-length E1); assay: gel filtration (SEC); no nucleotide cofactor; 50 uM E1, E1:DNA 6:1; details: protein: recombinant; tags: GST fusion, tag cleaved with thrombin and removed; chain copies: 6; fork: 10 bp duplex, 3' T20 and 5' C10 arms
[4] = target: T1, E1FL (full-length E1); assay: gel filtration (SEC) and negative stain EM; no nucleotide cofactor; 50 uM E1, E1:DNA 6:1; details: protein: recombinant; tags: GST fusion, tag cleaved with thrombin and removed; chain copies: 6; single strand
[5] = target: T1, E1FL (full-length E1); assay: gel filtration (SEC) and negative stain EM (20 A); streptavidin (MTS) bound to biotin; details: protein: recombinant; tags: GST fusion, tag cleaved with thrombin and removed; chain copies: 6; label: 5'-biotin on top strand (dsDNA end); fork: 10 bp duplex, 3' T20 and 5' C10 arms
[6] = target: the molecule itself; assay: negative-stain EM, single particle 3D reconstruction
[7] = target: T1, E1FL (full-length E1); assay: gel filtration (SEC) and negative stain EM (20 A); streptavidin (MTS) and anti-digoxigenin Fab bound to labels; details: protein: recombinant; tags: GST fusion, tag cleaved with thrombin and removed; chain copies: 6; label: 5'-biotin on top strand; 5'-digoxigenin on bottom strand; fork: 10 bp duplex, 3' T20 and 5' C10 arms

B1: 30 bp fork, 3' T20 and 5' C8, top strand labelled (dsDNA)
DNA 1: GGCTTGTATTTCACACCGCACCTCAGCGCGTTTTTTTTTTTTTTTTTTTT
DNA 2: CCCCCCCCCGCGCTGAGGTGCGGTGTGAAATACAAGCC
[1]
  binding result: binds

B2: 30 bp fork, 3' T20 and 5' C8, bottom strand labelled (dsDNA)
DNA 1: B1 DNA 1
DNA 2: CCCCCCCCCGCGCTGAGGTGCGGTGTGAAATACAAG
[2]
  binding result: binds

B3: RFJ 10 bp fork, 3' T20 and 5' C10 (dsDNA)
DNA 1: CCTCAGCGCGTTTTTTTTTTTTTTTTTTTT
DNA 2: CCCCCCCCCCCGCGCTGAGG
[3]
  binding result: binds

## TTTTTTTTTTTTTTTTTTTTTTTTTTTTTT (ssDNA) [ssDNA T30]
[4]
  binding result: binds

B4: RFJ 10 bp fork, 5' dsDNA biotin (dsDNA)
DNA 1: B3 DNA 1
DNA 2: CCCCCCCCCCCGCGCTGAGG
[5]
  binding result: binds

B5: E1 helicase domain (residues 299-605) (domain or fragment)
chain: QTTLNESLQTEKFDFGTMVQWAYDHKYAEESKIAYEYALAAGSDSNARAFLATNSQAKHVKDCATMVRHYLRAETQALSMPAYIKARCKLATGEGSWKSILTFFNYQNIELITFINALKLWLKGIPKKNCLAFIGPPNTGKSMLCNSLIHFLGGSVLSFANHKSHFWLASLADTRAALVDDATHACWRYFDTYLRNALDGYPVSIDRKHKAAVQIKAPPLLVTSNIDVQAEDRYLYLHSRVQTFRFEQPCTDESGEQPFNITDADWKSFFVRLWGRLDLIDEEEDSEEDGDSMRTFTCSARNTNAVD
[6]
  binding result: binds

B6: RFJ 10 bp fork, 5' dsDNA biotin and 5' ssDNA digoxigenin (dsDNA)
DNA 1: B3 DNA 1
DNA 2: CCCCCCCCCCCGCGCTGAGG
[7]
  binding result: binds

B7: full length BPV-1 E1 helicase (enzyme)
chain: MANDKGSNWDSGLGCSYLLTEAECESDKENEEPGAGVELSVESDRYDSQDEDFVDNASVFQGNHLEVFQALEKKAGEEQILNLKRKVLGSSQNSSGSEASETPVKRRKSGAKRRLFAENEANRVLTPLQVQGEGEGRQELNEEQAISHLHLQLVKSKNATVFKLGLFKSLFLCSFHDITRLFKNDKTTNQQWVLAVFGLAEVFFEASFELLKKQCSFLQMQKRSHEGGTCAVYLICFNTAKSRETVRNLMANTLNVREECLMLQPAKIRGLSAALFWFKSSLSPATLKHGALPEWIRAQTTLNESLQTEKFDFGTMVQWAYDHKYAEESKIAYEYALAAGSDSNARAFLATNSQAKHVKDCATMVRHYLRAETQALSMPAYIKARCKLATGEGSWKSILTFFNYQNIELITFINALKLWLKGIPKKNCLAFIGPPNTGKSMLCNSLIHFLGGSVLSFANHKSHFWLASLADTRAALVDDATHACWRYFDTYLRNALDGYPVSIDRKHKAAVQIKAPPLLVTSNIDVQAEDRYLYLHSRVQTFRFEQPCTDESGEQPFNITDADWKSFFVRLWGRLDLIDEEEDSEEDGDSMRTFTCSARNTNAVD
[6]
  stoichiometry N: 6
